Measurements: the array DNA melting data of Ke et al.

Test: melting temperature; melt of duplexes
Conditions: sodium 0.0675 M; strand 1 µM

| Substance | Tm [°C] |
| --- | --- |
| CGACGTGCGAAATGTGCTG+CAGCACATGGTGCACGTCG ((((((((...((((((((+))))))))...)))))))) | 50.6 |
| CGACGTGCTCAATGTGCTG+CAGCACATGTAGCACGTCG (((((((((..((((((((+))))))))..))))))))) | 52.8 |
| CGACGTGCCCTATGTGCTG+CAGCACATTATGCACGTCG ((((((((...((((((((+))))))))...)))))))) | 48 |
| CGACGTGCAGCATGTGCTG+CAGCACATCACGCACGTCG ((((((((...((((((((+))))))))...)))))))) | 46.7 |
| CGACGTGCCACATGTGCTG+CAGCACATCACGCACGTCG ((((((((...((((((((+))))))))...)))))))) | 46.2 |
| CGACGTGCACGATGTGCTG+CAGCACATCTAGCACGTCG ((((((((..(((((((((+)))))))))..)))))))) | 51.3 |
| CGACGTGCGTGATGTGCTG+CAGCACATACGGCACGTCG ((((((((...((((((((+))))))))...)))))))) | 51.1 |
| CGACGTGCTAAATGTGCTG+CAGCACATTTAGCACGTCG (((((((((((((((((((+))))))))))))))))))) | 61.6 |
| CGACGTGCGAGATGTGCTG+CAGCACATATTGCACGTCG ((((((((.(.((((((((+)))))))).).)))))))) | 54.4 |
| CGACGTGCGAGATGTGCTG+CAGCACATCTCGCACGTCG (((((((((((((((((((+))))))))))))))))))) | 66.5 |
| CGACGTGCACTATGTGCTG+CAGCACATGCAGCACGTCG ((((((((...((((((((+))))))))...)))))))) | 45.3 |
| CGACGTGCACAATGTGCTG+CAGCACATCTGGCACGTCG ((((((((...((((((((+))))))))...)))))))) | 47.5 |
| CGACGTGCTATATGTGCTG+CAGCACATTATGCACGTCG ((((((((...((((((((+))))))))...)))))))) | 51.6 |
| CGACGTGCAGGATGTGCTG+CAGCACATTAAGCACGTCG ((((((((...((((((((+))))))))...)))))))) | 50.7 |
| CGACGTGCCGTATGTGCTG+CAGCACATGTCGCACGTCG ((((((((...((((((((+))))))))...)))))))) | 49 |
| CGACGTGCACAATGTGCTG+CAGCACATATGGCACGTCG ((((((((...((((((((+))))))))...)))))))) | 47.7 |
| CGACGTGCCCCATGTGCTG+CAGCACATGTGGCACGTCG (((((((((.(((((((((+))))))))).))))))))) | 58.8 |
| CGACGTGCTCGATGTGCTG+CAGCACATAGCGCACGTCG ((((((((.(.((((((((+)))))))).).)))))))) | 51.6 |
| CGACGTGCGGAATGTGCTG+CAGCACATCGAGCACGTCG ((((((((...((((((((+))))))))...)))))))) | 54.6 |
| CGACGTGCAACATGTGCTG+CAGCACATAGTGCACGTCG (((((((((..((((((((+))))))))..))))))))) | 48.9 |
| CGACGTGCATCATGTGCTG+CAGCACATATGGCACGTCG ((((((((...((((((((+))))))))...)))))))) | 48.8 |
| CGACGTGCGTAATGTGCTG+CAGCACATGTTGCACGTCG ((((((((...((((((((+))))))))...)))))))) | 51.7 |
| CGACGTGCCAAATGTGCTG+CAGCACATCAGGCACGTCG (((((((((..((((((((+))))))))..))))))))) | 54.2 |
| CGACGTGCCACATGTGCTG+CAGCACATGTTGCACGTCG ((((((((.((((((((((+)))))))))).)))))))) | 57.4 |

| Substance | Tm [°C] |
| --- | --- |
| CGACGTGCCTGATGTGCTG+CAGCACATTGCGCACGTCG ((((((((...((((((((+))))))))...)))))))) | 49.3 |
| CGACGTGCAATATGTGCTG+CAGCACATGTCGCACGTCG ((((((((.(.((((((((+)))))))).).)))))))) | 51.5 |
| CGACGTGCGTTATGTGCTG+CAGCACATCACGCACGTCG ((((((((((.((((((((+)))))))).)))))))))) | 56.8 |
| CGACGTGCTAGATGTGCTG+CAGCACATTTAGCACGTCG ((((((((((.((((((((+)))))))).)))))))))) | 56.6 |
| CGACGTGCATGATGTGCTG+CAGCACATTGAGCACGTCG ((((((((...((((((((+))))))))...)))))))) | 50.7 |
| CGACGTGCGCCATGTGCTG+CAGCACATTATGCACGTCG ((((((((...((((((((+))))))))...)))))))) | 47.6 |
| CGACGTGCTTCATGTGCTG+CAGCACATAGTGCACGTCG ((((((((...((((((((+))))))))...)))))))) | 44.4 |
| CGACGTGCTCTATGTGCTG+CAGCACATTTCGCACGTCG ((((((((...((((((((+))))))))...)))))))) | 47.3 |
| CGACGTGCGGGATGTGCTG+CAGCACATTCCGCACGTCG ((((((((((.((((((((+)))))))).)))))))))) | 62.8 |
| CGACGTGCTGAATGTGCTG+CAGCACATAGCGCACGTCG ((((((((...((((((((+))))))))...)))))))) | 48.3 |
| CGACGTGCTATATGTGCTG+CAGCACATACCGCACGTCG ((((((((..(((((((((+)))))))))..)))))))) | 49.3 |
| CGACGTGCCGAATGTGCTG+CAGCACATTAAGCACGTCG ((((((((..(((((((((+)))))))))..)))))))) | 52.3 |
| CGACGTGCCCTATGTGCTG+CAGCACATTCGGCACGTCG (((((((((..((((((((+))))))))..))))))))) | 52.9 |
| CGACGTGCAATATGTGCTG+CAGCACATGCTGCACGTCG (((((((((..((((((((+))))))))..))))))))) | 50.7 |
| CGACGTGCGCCATGTGCTG+CAGCACATACTGCACGTCG ((((((((...((((((((+))))))))...)))))))) | 48.2 |
| CGACGTGCGGGATGTGCTG+CAGCACATGGCGCACGTCG (((((((((..((((((((+))))))))..))))))))) | 57.5 |
| CGACGTGCTTGATGTGCTG+CAGCACATCTAGCACGTCG (((((((((.(((((((((+))))))))).))))))))) | 58.6 |
| CGACGTGCAAGATGTGCTG+CAGCACATGCAGCACGTCG ((((((((...((((((((+))))))))...)))))))) | 52.3 |
| CGACGTGCAACATGTGCTG+CAGCACATCACGCACGTCG ((((((((...((((((((+))))))))...)))))))) | 46.5 |
| CGACGTGCTTAATGTGCTG+CAGCACATCCTGCACGTCG ((((((((...((((((((+))))))))...)))))))) | 48.4 |
| CGACGTGCATCATGTGCTG+CAGCACATTACGCACGTCG ((((((((.(.((((((((+)))))))).).)))))))) | 48.1 |
| CGACGTGCGCCATGTGCTG+CAGCACATTCTGCACGTCG ((((((((...((((((((+))))))))...)))))))) | 47.8 |
| CGACGTGCGCTATGTGCTG+CAGCACATGGCGCACGTCG ((((((((((.((((((((+)))))))).)))))))))) | 63.2 |
| CGACGTGCGCCATGTGCTG+CAGCACATGAAGCACGTCG ((((((((..(((((((((+)))))))))..)))))))) | 57.1 |

| Substance | Tm [°C] |
| --- | --- |
| CGACGTGCTGGATGTGCTG+CAGCACATCCGGCACGTCG ((((((((.((((((((((+)))))))))).)))))))) | 62.9 |
| CGACGTGCAAAATGTGCTG+CAGCACATCTCGCACGTCG ((((((((.(.((((((((+)))))))).).)))))))) | 48.6 |
| CGACGTGCCACATGTGCTG+CAGCACATCAAGCACGTCG ((((((((...((((((((+))))))))...)))))))) | 47.7 |
| CGACGTGCAGCATGTGCTG+CAGCACATTCTGCACGTCG ((((((((((.((((((((+)))))))).)))))))))) | 55 |
| CGACGTGCAAGATGTGCTG+CAGCACATCGAGCACGTCG ((((((((..(((((((((+)))))))))..)))))))) | 57.9 |
| CGACGTGCCCGATGTGCTG+CAGCACATCCAGCACGTCG ((((((((..(((((((((+)))))))))..)))))))) | 52.7 |
| CGACGTGCCTTATGTGCTG+CAGCACATGCTGCACGTCG ((((((((...((((((((+))))))))...)))))))) | 45.1 |
| CGACGTGCTGCATGTGCTG+CAGCACATTCGGCACGTCG ((((((((.(.((((((((+)))))))).).)))))))) | 53.2 |
| CGACGTGCTAGATGTGCTG+CAGCACATACAGCACGTCG (((((((((..((((((((+))))))))..))))))))) | 53.2 |
| CGACGTGCCGGATGTGCTG+CAGCACATGATGCACGTCG ((((((((...((((((((+))))))))...)))))))) | 49 |
| CGACGTGCCACATGTGCTG+CAGCACATGTCGCACGTCG ((((((((.((((((((((+)))))))))).)))))))) | 56.4 |
| CGACGTGCGCTATGTGCTG+CAGCACATGGTGCACGTCG ((((((((.(.((((((((+)))))))).).)))))))) | 54.6 |
| CGACGTGCGGGATGTGCTG+CAGCACATACTGCACGTCG ((((((((.(.((((((((+)))))))).).)))))))) | 56.9 |
| CGACGTGCATTATGTGCTG+CAGCACATATGGCACGTCG ((((((((..(((((((((+)))))))))..)))))))) | 51.8 |
| CGACGTGCTAAATGTGCTG+CAGCACATCCTGCACGTCG ((((((((...((((((((+))))))))...)))))))) | 49 |
| CGACGTGCGTTATGTGCTG+CAGCACATAGGGCACGTCG ((((((((..(((((((((+)))))))))..)))))))) | 52.5 |
| CGACGTGCGTAATGTGCTG+CAGCACATACCGCACGTCG (((((((((..((((((((+))))))))..))))))))) | 54.2 |
| CGACGTGCAGTATGTGCTG+CAGCACATGTGGCACGTCG ((((((((...((((((((+))))))))...)))))))) | 50.4 |
| CGACGTGCTCGATGTGCTG+CAGCACATCGTGCACGTCG ((((((((.((((((((((+)))))))))).)))))))) | 59 |
| CGACGTGCTGTATGTGCTG+CAGCACATAAAGCACGTCG (((((((((.(((((((((+))))))))).))))))))) | 55.5 |
| CGACGTGCTTGATGTGCTG+CAGCACATTAAGCACGTCG ((((((((((.((((((((+)))))))).)))))))))) | 57.2 |
| CGACGTGCATAATGTGCTG+CAGCACATGGCGCACGTCG ((((((((...((((((((+))))))))...)))))))) | 53 |
| CGACGTGCATGATGTGCTG+CAGCACATGAAGCACGTCG ((((((((.(.((((((((+)))))))).).)))))))) | 50.3 |
| CGACGTGCCTGATGTGCTG+CAGCACATACTGCACGTCG ((((((((...((((((((+))))))))...)))))))) | 48.4 |
